Data taken from patent publication US20240043547A1.

Tests used:
[1] = target: human IL-31 (human) (UniProt Q6EBC2); test: cell-based or functional assay
[2] = target: cynomolgus IL-31-His (cynomolgus monkey (Macaca fascicularis)); test: SPR (Biacore T200), cynomolgus IL-31-His captured via anti-His antibody, scFv as analyte

Sequence of human IL-31 (human) (Q6EBC2 24-164 limits assumed): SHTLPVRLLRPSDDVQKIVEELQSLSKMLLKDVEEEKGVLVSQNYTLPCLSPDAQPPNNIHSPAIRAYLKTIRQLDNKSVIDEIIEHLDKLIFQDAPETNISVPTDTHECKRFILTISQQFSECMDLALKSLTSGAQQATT

| Binder | IC50 [ng/ml], neutralization of hIL-31-induced signaling in IL-31RA/OSMR dimerization assay [1] [ng/mL] | rel. IC50 (IC50, BMS-981164/IC50, test sample), IL-31RA/OSMR dimerization assay [1] | Kd [2] [nM] | koff [2] [s⁻¹] | kon [2] [M⁻¹ s⁻¹] |
| --- | --- | --- | --- | --- | --- |
| PRO1901 (scFv) scFv: AFQLTQSPSSLSASVGDRVTITCQASQSIDSWLAWYQQKPGKPPKLLIYQASKLASGVPSRFSGSGSGTDYTLTISSLQPEDFATYYCQTYYGGGHIGWGFGTGTKVTVLGGGGGSGGGGSGGGGSGGGGSQSQLVESGGGSVQPGGSLRLSCAASGFSFSANYWICWVRQAPGKGLEWIVCIYIGSRADTYYAPWAKGRFTISKDNSKNTVYLQMNSLRAEDTATYFCARFSSGIYDLDRFFLWGQGTQVTVSS | 8.07 | 0.78 | 1.14 | 0.000569 | 501000 |
| PRO1902 (scFv) scFv: AFQLTQSPSSLSASVGDRVTITCQASQSIDSWLAWYQQKPGKPPKLLIYQASKLASGVPSRFSGSGSGTDYTLTISSLQPEDFATYYCQTYYGGGHIGWGFGTGTKVTVLGGGGGSGGGGSGGGGSGGGGSQSQLVESGGGLVQPGGSLRLSCAASGFSFSANYWICWVRQAPGKGLEWIVCISIGSRADTYYAPWAKGRFTISKDNSKNTVYLQMNSLRAEDTAVYFCARFSSGIYDLDRFFLWGQGTLVTVSS | 371 | 0.03 | 3.38 | 0.00247 | 731000 |
| PRO1903 (scFv) scFv: AFQLTQSPSSLSASVGDRVTITCQASQSIESWLAWYQQKPGKPPKLLIYQASKLASGVPSRFSGSGSGTDYTLTISSLQPEDFATYYCQTYYGGGHIGWGFGTGTKVTVLGGGGGSGGGGSGGGGSGGGGSQSQLVESGGGLVQPGGSLRLSCAASGFSFSANYWICWVRQAPGKGLEWIVCIYIGSRADTYYAPWAKGRFTISKDNSKNTVYLQMNSLRAEDTAVYFCARFSSGIYDLDRFFLWGQGTLVTVSS | 7.98 | 1.49 | 1.39 | 0.000605 | 434000 |
